{"source": "patent US20230002488A1", "about": "(SYSTIMMUNE, published 2023)", "binders": {"B1": {"name": "SI-55P9 (antibody, human IgG1, kappa)", "heavy": "not shown", "light": "ENVLTQSPASLSASPGERVTITCSASSSVSYMHWYQQKPGQAPKLWIYDTSKLASGVPSRFSGSGSGNDHTLTISSMEPEDFATYYCFQGSVYPFTFGQGTKVTVLGGGGSGGGGSGGGGSGGGGSQVTLKESGPGLVQPGQTLRLTCAFSGFSLSTSGMGVGWIRQPPGKGLEWLAHIWWDDDKRYNPALKSRLTISKDTSKNQVYLQMNSLDAEDTAVYYCARMELWSYYFDYWGQGTLVTVSSGGGGSGGGGSDVVMTQSPSTLSASVGDRVTINCQASESISSWLAWYQQKPGKAPKLLIYEASKLASGVPSRFSGSGSGTEFTLTISSLQPDDFATYYCQGYFYFISRTYVNSFGGGTKVEIKRTVAAPSVFIFPPSDEQLKSGTASVVCLLNNFYPREAKVQWKVDNALQSGNSQESVTEQDSKDSTYSLSSTLTLSKADYEKHKVYACEVTHQGLSSPVTKSFNRGEC", "notes": "Penta-specific: D1 humanized anti-EGFR H7 scFv, D2 CD3, D3 PD-L1, D4 4-1BB, D6 CD19"}}, "key": {"human CD19": {"target": "T1, human CD19 (human, UniProt P15391 20-291)", "T1 sequence (looked up)": "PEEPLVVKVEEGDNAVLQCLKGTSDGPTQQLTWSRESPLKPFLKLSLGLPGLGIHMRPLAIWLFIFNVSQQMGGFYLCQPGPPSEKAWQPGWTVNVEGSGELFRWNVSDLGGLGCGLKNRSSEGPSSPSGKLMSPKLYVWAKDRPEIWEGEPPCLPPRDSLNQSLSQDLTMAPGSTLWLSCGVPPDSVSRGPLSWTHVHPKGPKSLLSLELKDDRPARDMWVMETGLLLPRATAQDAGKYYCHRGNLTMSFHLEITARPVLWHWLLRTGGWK", "experiment": "BLI (Octet), GNC on AHC sensor; strong binding, dissociation too slow to quantify KD"}, "human EGFR [1]": {"target": "T2, human EGFR (human, UniProt P00533 25-645)", "T2 construct": "also called huEGFR; His-tagged human EGFR", "experiment": "BLI (Octet), GNC on AHC sensor, antigen as analyte, 1:1 fit"}, "human EGFR [2]": {"target": "T2, human EGFR", "experiment": "BLI (Octet), GNC on AHC sensor, His-tagged human EGFR as analyte, global 1:1 fit"}, "human 4-1BB": {"target": "T3, human 4-1BB (human, UniProt Q07011 24-186)", "T3 construct": "Bought antigen; construct not described", "experiment": "BLI (Octet), GNC on AHC sensor, 100 nM antigen as analyte, 1:1 fit"}, "human PD-L1": {"target": "T4, human PD-L1 (human, UniProt Q9NZQ7 19-238)", "T4 construct": "Bought antigen; construct not described", "experiment": "BLI (Octet), GNC on AHC sensor, 100 nM antigen as analyte, 1:1 fit"}}, "data": [{"binder": "B1", "values": [{"measurement": "binding result", "setting": "human CD19", "result": "binds"}, {"measurement": "Kd", "setting": "human EGFR [1]", "result": 7.41, "unit": "nM"}, {"measurement": "Kd", "setting": "human EGFR [2]", "result": 7.41, "unit": "nM"}, {"measurement": "Kd", "setting": "human 4-1BB", "result": 7.55, "unit": "nM"}, {"measurement": "Kd", "setting": "human PD-L1", "result": 0.407, "unit": "nM"}]}]}
